The subject of series [1] is ERα (endogenous, MT-2 nuclear extract) (human (MT-2 cells)). Kind of series: pull-down (anti-ERα, qPCR). The following applies: normalized to 176 bp internal control DNA; EMSA: 10% glycerol, 80 mM KCl, 25 mM NaCl, 15 mM Tris pH 8.0, 0.18 mM EDTA, 1 mM MgCl2, 1.1 mM DTT, 50 uM Na3VO4, 33.3 ug/ml BSA, 150 ug/ml poly-dIdC, 20 min …. Background: Mobility shift assays separate free from complexed probe on a gel.

The target in series [2] is ERα (purified recombinant) (human, UniProt P03372 1-595). Put plainly: EMSA; below detection limit; EMSA: 10% glycerol, 80 mM KCl, 25 mM NaCl, 15 mM Tris pH 8.0, 0.18 mM EDTA, 1 mM MgCl2, 1.1 mM DTT, 50 uM Na3VO4, 33.3 ug/ml BSA, 150 ug/ml poly-dIdC, 20 min room temperature, gel at 4 C; pull-down: 60 mM KCl, 12 mM HEPES pH 8.0, 4 mM Tris pH 8.0, 0.5 mM EDTA, 5% glycerol, 1 mM DTT, salmon sperm DNA, on ice, then RIPA buffer, 4 C overnight. The note with it: protein: recombinant; chain copies: 2; label: 32P (dATP, Klenow fill-in); blunt after Klenow fill-in (annealed oligos of 26 and 24 nt).
Sequence of ERα (purified recombinant) (P03372 whole entry): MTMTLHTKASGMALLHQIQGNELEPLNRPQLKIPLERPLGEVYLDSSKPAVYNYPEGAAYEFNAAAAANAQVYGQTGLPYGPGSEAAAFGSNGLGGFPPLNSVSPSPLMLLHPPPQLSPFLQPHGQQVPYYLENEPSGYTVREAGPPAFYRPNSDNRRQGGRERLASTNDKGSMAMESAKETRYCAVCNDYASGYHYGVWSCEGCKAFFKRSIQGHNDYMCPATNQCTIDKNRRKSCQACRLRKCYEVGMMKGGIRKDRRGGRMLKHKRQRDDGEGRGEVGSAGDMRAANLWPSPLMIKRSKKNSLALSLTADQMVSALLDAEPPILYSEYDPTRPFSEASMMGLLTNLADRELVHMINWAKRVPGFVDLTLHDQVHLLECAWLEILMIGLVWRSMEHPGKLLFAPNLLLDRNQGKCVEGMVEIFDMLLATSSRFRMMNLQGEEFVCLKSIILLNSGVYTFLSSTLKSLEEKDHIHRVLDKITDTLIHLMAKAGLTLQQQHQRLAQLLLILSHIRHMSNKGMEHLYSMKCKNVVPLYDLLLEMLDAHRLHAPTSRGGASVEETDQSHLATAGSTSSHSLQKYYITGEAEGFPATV

For IL2RA rs12722489 G, 189 bp PCR, the binding signal (fold vs A variant) in series [1] was found to be 2.

B1: IL2RA rs12722489 A, 32 bp (dsDNA)
DNA 1: ACTTATCCAAGGATCTGAGTGGTCTTGGAGGG
DNA 2: CCCTCCAAGACCACTCAGATCCTTGGATAAGT
Consider B1, for which the binding result in series [2] is given as “no binding”.

These data come from paper PMC5325477, “The single nucleotide variant rs12722489 determines differential estrogen receptor binding and enhancer properties of an IL2RA intronic region”.
